From patent US20220162322A1

Molecular target: BDCA-2 (CLEC4C, CD303) on human plasmacytoid dendritic cells (purified pDC or pDC within PBMC) (human) (UniProt Q8WTT0)
Experiment: cell-based or functional assay

BDCA-2 (CLEC4C, CD303) on human plasmacytoid dendritic cells (purified pDC or pDC within PBMC) (human), sequence (Q8WTT0 whole entry): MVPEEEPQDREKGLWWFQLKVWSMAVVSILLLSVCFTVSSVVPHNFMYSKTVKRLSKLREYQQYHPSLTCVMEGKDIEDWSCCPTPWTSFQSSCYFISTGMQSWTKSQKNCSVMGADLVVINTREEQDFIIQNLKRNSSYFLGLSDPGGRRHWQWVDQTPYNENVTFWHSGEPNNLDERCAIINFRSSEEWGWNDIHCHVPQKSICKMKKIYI

IC50, nM; inhibition of IFNα from ODN stimulated healthy donor PBMC: 0.85 nM
IC50, ng/ml; inhibition of IFNα from ODN stimulated healthy donor PBMC: 128 ng/mL
IC90, nM; inhibition of IFNα from ODN stimulated healthy donor PBMC: 7.68 nM
IC90, ng/ml; inhibition of IFNα from ODN stimulated healthy donor PBMC: 1150 ng/mL
B1: anti-BDCA-2 mAb BIIB059 (from patent WO2014093396) (antibody, INN chains, looked up, V domains shown)
VH: DVQLVESGGGLVKPGGSLRLSCAASGFTFSTYTMSWVRQAPGKGLEWVATISPGDSFGYYYPDSVQGRFTISRDNAKNSLYLQMNSLRAEDTAVYYCTRDIYYNYGAWFAYWGQGTLVTVSS
VL: DIQLTQSPSSLSASVGDRVTITCKASQSVDYDGDSYMNWYQQKPGKAPKLLIYAASTLESGVPSRFSGSGSGTDFTLTISSLQPEDFATYYCQQANEDPRTFGQGTKVEIK
